Test results as given in paper PMC2572732, “Structural Coupling of SH2-Kinase Domains Links Fes and Abl Substrate Recognition and Kinase Activation” (Cell, 2008).

System: Fes; GST-cortactin (residues 382–550)
Assay: In vivo kinase assay: Fes autophosphorylation and GST-cortactin phosphorylation in transfected HEK293T cells
Assay type: cell-based, human
Details: HEK293T cells, anti-pTyr western blot, in words
Description: To pursue the relevance of the observed interdomain interactions, we studied the effects of mutating residues in the SH2-kinase interface on human Fes activity. To this end, we monitored Fes autophosphorylation and transphosphorylation activity in transfected cells, using cortactin (residues 382–550) fused to GST as an exogenous substrate (Figures 2A and 2B). In an effort to perturb the close interaction between the SH2 and kinase domains, we mutated the conserved glycine residue (G463) located in the tightly packed interface between the SH2 N terminus and the kinase β4/β5 loop to valine (mutant G/V). Introducing this bulky side chain would be expected to sterically hinder alignment of the SH2 and kinase domains, resulting in an altered domain packing. Wild-type (WT) and G/V mutant full-length human Fes, each with an N-terminal Flag epitope, were expressed in HEK293T cells together with GST-cortactin.
Wild-type p130^Gag-Fps and the RX15m and AX9m mutants ([Stone et al., 1984]) were subcloned into the vector pRK5-myc ([Winberg et al., 2000]). Full-length human Fes was cloned into the vector pCMV7.1-3xFlag (Sigma, St. Louis, MO). Site-directed mutagenesis was performed using the QuickChange® II XL Kit (Stratagene, La Jolla, CA) following the manufacturer's directions. A GST-tagged C-terminal fragment of human cortactin (residues 382–550, accession Q14247) was prepared by PCR from cDNA (accession BC008799) and cloned into pEBG vector (gift from C. Duckett, University of Michigan Medical School, Ann Arbor).
HEK293T cells were maintained in Dulbecco's modified Eagle's medium supplemented with 10% (vol/vol) fetal bovine serum, 100 units/ml penicillin G sodium, and 100 μg/ml streptomycin and incubated at 37°C, 5% CO2.
Flag-tagged Fes or Myc-tagged p130^Gag-Fps and mutants thereof were cotransfected with GST-cortactin into HEK293T cells. After 24 hr, cells were lysed with NP-40 cell lysis buffer (50 mM Tris-HCl [pH 7.5], 150 mM NaCl, 1% NP-40, and 1 mM EDTA) that contained 1 mM phenylmethylsulfonyl fluoride, 10 μg/ml leupeptin, 10 μg/ml aprotinin, and 10 μg/ml pepstatin A. Cell lysates, normalized for protein concentration, were used in anti-Flag M2 antibody-agarose (Sigma) or anti-Myc antibody immunoprecipitations or glutathione sepharose affinity precipitations. Associated proteins were resolved using SDS-PAGE and analyzed by western blotting using anti-Flag M2 (Sigma), anti-c-Myc 9E10 (Santa Cruz), HRP-conjugated anti-GST (Santa Cruz), or anti-pTyr 4G10 (Upstate) antibodies.

B1: R/M: Fes with R483 in the SH2 pTyr-binding pocket substituted with methionine (protein, UniProt P07332 1-822, looked up, variant R483M)
Tyrosine-protein kinase …: MGFSSELCSPQGHGVLQQMQEAELRLLEGMRKWMAQRVKSDREYAGLLHHMSLQDSGGQSRAISPDSPISQSWAEITSQTEGLSRLLRQHAEDLNSGPLSKLSLLIRERQQLRKTYSEQWQQLQQELTKTHSQDIEKLKSQYRALARDSAQAKRKYQEASKDKDRDKAKDKYVRSLWKLFAHHNRYVLGVRAAQLHHQHHHQLLLPGLLRSLQDLHEEMACILKEILQEYLEISSLVQDEVVAIHREMAAAAARIQPEAEYQGFLRQYGSAPDVPPCVTFDESLLEEGEPLEPGELQLNELTVESVQHTLTSVTDELAVATEMVFRRQEMVTQLQQELRNEEENTHPRERVQLLGKRQVLQEALQGLQVALCSQAKLQAQQELLQTKLEHLGPGEPPPVLLLQDDRHSTSSSEQEREGGRTPTLEILKSHISGIFRPKFSLPPPLQLIPEVQKPLHEQLWYHGAIPRAEVAELLVHSGDFLVMESQGKQEYVLSVLWDGLPRHFIIQSLDNLYRLEGEGFPSIPLLIDHLLSTQQPLTKKSGVVLHRAVPKDKWVLNHEDLVLGEQIGRGNFGEVFSGRLRADNTLVAVKSCRETLPPDLKAKFLQEARILKQYSHPNIVRLIGVCTQKQPIYIVMELVQGGDFLTFLRTEGARLRVKTLLQMVGDAAAGMEYLESKCCIHRDLAARNCLVTEKNVLKISDFGMSREEADGVYAASGGLRQVPVKWTAPEALNYGRYSSESDVWSFGILLWETFSLGASPYPNLSNQQTREFVEKGGRLPCPELCPDAVFRLMEQCWAYEPGQRPSFSTIYQELQSIRKRHR
Fes autophosphorylation (Flag-Fes): failed to autophosphorylate
transphosphorylation of cortactin (GST-cortactin): significantly reduced ability to transphosphorylate cortactin
